# From the domain aggregation screens of Martell et al. (2025)
# Assay: soluble fraction after stress (log2 fold change); higher = more stays soluble; pooled small domains, quantitative proteomics
# Details: stress: 50 degC
# Procedure, shortened: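 After stress at 50°C, the amount of each protein still soluble was measured. This was done on pooled custom libraries of small protein domains, using high-throughput quantitative proteomics. The figure given is a base-two log fold change and stands for aggregation propensity, with higher values meaning more protein stays in solution.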
row,Sequence,soluble fraction (log2)
1,HMNLEIGAIIKSLRAKHKYTQEQLSAFLGVTPQAVSRWEAGNGYPDIELLPAIARFFEVSTDELLGL,-0.428
2,HMNLGDLYVIMEIAGQRDDVSARLMNREGQTFLVKTGTKLKSGDVVKEITPTYIKTDHDGEEAFLYF,-0.542
3,HMNLGETIYNLRKEKKLSQGDLAEQLSVSRQSVSKWENNSAVPDLDKLVKLSTIFGVSLDELVKG,0.0247
4,HMNLGLTGDPSVLYSILLQRGDSSRADLQRQTGWSLSKTTLVLNQLLAQKLIVQVGAGRSTQYRVIN,-0.983
5,HMNLGNLAYESKVTKQVLNMIRPLHPEYSSDDITRAVKEILSEEGSRQRRVDEIARGALDVLMGNPR,0.216
6,HMNLLQAHLLRLESAALLAEVREVDRQLSRWLHPLTPQSDVAIIDERNWEAAVARLTELGVHIEEGRW,-2.92
7,HMNLNIGNNIKNIRKSKNMTQTDFAELMGLSRSYIGDLENNRSNPSIKTLEAIARALDVPIVALIN,-0.399
8,HMNLSSETLSEMEARIGQMGVVELQDRRAYLLQEQEGTQNPSRLKEIADELSAIQKALVALV,0.1
9,HMNLTEIGQRIRDRREELGLSQDRLAKLGGLPRVTINQLETGSIGDLGVSKLLNLLDLLGLTLDA,-0.108
10,HMNLTLMDALKAAGLPVDGINLSMVNKMMEEQMPIDKTSLNQMYQLVQDNKDINVTTLVELKRLG,-0.0277
11,HMNLTSNDAYSRILNAIITSELRPGDTVTEIQLAQKFGFGRTPVREAIMRLENEGFIVSAERKKRVYIL,-2
12,HMNLTSSDIQKILSYALLADNSITLNSIEESMASLKLKKMSAEQLIELLEVSSMVLRNTNNSWSIL,-1.95
13,HMNMENIADKIGKIYESLPEDLKLMIKYRDIDDLTYDEIAVKADLPVGTVRSRLHRAREQLLKELEKN,-0.143
14,HMNMEPNWLKWAKQLAALAQNGLTYSDNPYEIERYEHIRRIAAEMMAEGFELDTKTILELFPREKG,-2.05
15,HMNMFDMRKTGARISQLRRAAGLTQAELAEKLGISYQAVSSWERGSNMPDIGKLLDLARILNTTVDALLSA,-0.375
16,HMNMGKRFKELRKERKFTQQQLADRIGLAPSAISSYESGARYPSYDVLIKYSKIFHVTTDYLLG,-2.81
17,HMNMKVGPVPANVVPANIKAHVSNNYSKYQIVQMMQNDKGYQVKLSNGTDLYYDKDGNILKTS,0.196
18,HMNMSVGAALRRRRNELGMTLRELADEAELTSGFLSQVENDRVSPSLKSLGRIAEVLRIPLFQLLS,-1.29
19,HMNMSVVEKVIQQISNPGRDSLIPILQAVQEEEGFISRESVIEIGKALDLPASKIYGVATFYNQFR,-0.338
20,HMNMTDVLVVNQTVRGGTQITESMLSVKKVDKSSLPDNYLKASLKDEVVGKYFDLGLTSGGVLTKDNISVS,0.00597
21,HMNMVSGHLQIKKGYYYVVLSYYDNRNKRHVKYVSTGLPEKGNKRKAEAALARVRSEFEPPQE,-3.55
22,HMNNDFIVKSTDSHKVNLRSQPDTHADIIKRLDDHTIVEKLKTVRKNWYLVQLKDTTTQGYVHKSQLERV,-0.0413
23,HMNNDFVERLRKLFGHASMAEIARRIDVPHATIRNYFQGRLPAPEVLIKLARETGVSLNWLLTGEGKMFA,-0.253
24,HMNNENELSSIISKVLEENPAEKERFLNGEKKLAGFFMGKIMKATKGTADPKKAAQLLNEIL,0.295
25,HMNNFNVVVGKAIKNSFNTRENYITINAGKVLGIKTDMGVINDKGIVGIVEKTSKDFATIQSVLNIKS,0.00115
26,HMNNGTDGLTTRLRRAILAGQYTFKERLPSERQLAEHFNTSRGTVRKVLQRLTTMNLVEQRAGSGTYVRYG,-0.2
27,HMNNIGSKIKSAKILNNLDDNQLSEITGIDKLQLRSIQDGQVNPTKMELEIISKALKLPTNYFTK,-0.0222
28,HMNNIIYLIANKLDVGKRLDQFITIRTEFSRQRVINLIEDGYVKLNNKIINLKKYKIKGDEKIEITIPEIR,-0.542
